Data: paper PMC5389796

What was measured:
[1] = target: TALK-1 T3 A277E (rs1535500)-FLAG (human) (UniProt Q96T55)
TALK-1 T3-FLAG (human) [2] = target: TALK-1 T3-FLAG (human) (UniProt Q96T55)
TALK-1 T3-FLAG (human) [3] = target: TALK-1 T3-FLAG (human) (UniProt Q96T55); remark: listed apart in the source

whole-cell K2P currents of T-REx cells with induced TALK-1 T3 A277E, increase with iOPN compared to the PKM2 control, at -60, -30, 0, 30 and 60 mV [1]: 18.7 pA/pF
whole-cell K2P currents of T-REx cells with induced TALK-1 T3, increase with iOPN compared to the PKM2 control, at -60, -30, 0, 30 and 60 mV (TALK-1 T3-FLAG (human) [2]): 19.6 pA/pF
change of resting membrane potential (ΔVm), TALK-1 T3 with iOPN against TALK-1 T3 with PKM2, perforated patch (TALK-1 T3-FLAG (human) [3]): -7.7 mV
resting membrane potential (Vm) of T-REx cells expressing TALK-1 T3 with iOPN, perforated patch (TALK-1 T3-FLAG (human) [3]): -80.2 mV
Substance: iOPN-V5 (from UniProt P10451-1 17-314) (natural protein)
